PMC3089470 (Nucleic Acids Research, 2011)

Tests used:
Assay in all cases: pull-down
[1] = biological target: purified recombinant MRN complex (Mre11:Rad50:NBS1) (UniProt P49959;Q92878;O60934)
[2] = biological target: T1, GST-tagged NBS1 fragment NBS1A (1-221) (UniProt O60934 1-221)
T1 sequence: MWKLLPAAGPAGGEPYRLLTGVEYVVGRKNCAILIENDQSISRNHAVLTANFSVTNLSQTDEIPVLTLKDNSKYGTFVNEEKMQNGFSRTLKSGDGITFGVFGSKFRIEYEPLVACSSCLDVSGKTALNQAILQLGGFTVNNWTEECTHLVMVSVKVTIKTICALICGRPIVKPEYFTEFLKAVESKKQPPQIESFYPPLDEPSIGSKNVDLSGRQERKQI

[3] = biological target: T2, NBS1A with the mutation R215W (UniProt O60934 1-221, R215W)
T2 sequence: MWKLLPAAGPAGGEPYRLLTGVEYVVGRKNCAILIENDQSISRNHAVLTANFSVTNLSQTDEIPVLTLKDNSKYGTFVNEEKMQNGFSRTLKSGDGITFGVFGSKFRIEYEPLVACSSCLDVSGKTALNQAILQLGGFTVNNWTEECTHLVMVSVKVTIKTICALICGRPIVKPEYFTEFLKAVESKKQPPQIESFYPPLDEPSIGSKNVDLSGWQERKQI

[4] = biological target: T3, NBS1A with the mutation I171V (UniProt O60934 1-221, I171V)
T3 sequence: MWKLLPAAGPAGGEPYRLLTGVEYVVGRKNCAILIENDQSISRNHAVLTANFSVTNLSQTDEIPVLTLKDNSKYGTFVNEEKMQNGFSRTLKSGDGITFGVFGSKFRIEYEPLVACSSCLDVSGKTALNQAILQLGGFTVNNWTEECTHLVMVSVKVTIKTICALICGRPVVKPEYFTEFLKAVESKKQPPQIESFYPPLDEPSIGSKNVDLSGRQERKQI

Measured: binding result

purified recombinant MRN complex (Mre11:Rad50:NBS1), sequence (P49959 whole entry, chain 1 of 2, the tested form may be a part): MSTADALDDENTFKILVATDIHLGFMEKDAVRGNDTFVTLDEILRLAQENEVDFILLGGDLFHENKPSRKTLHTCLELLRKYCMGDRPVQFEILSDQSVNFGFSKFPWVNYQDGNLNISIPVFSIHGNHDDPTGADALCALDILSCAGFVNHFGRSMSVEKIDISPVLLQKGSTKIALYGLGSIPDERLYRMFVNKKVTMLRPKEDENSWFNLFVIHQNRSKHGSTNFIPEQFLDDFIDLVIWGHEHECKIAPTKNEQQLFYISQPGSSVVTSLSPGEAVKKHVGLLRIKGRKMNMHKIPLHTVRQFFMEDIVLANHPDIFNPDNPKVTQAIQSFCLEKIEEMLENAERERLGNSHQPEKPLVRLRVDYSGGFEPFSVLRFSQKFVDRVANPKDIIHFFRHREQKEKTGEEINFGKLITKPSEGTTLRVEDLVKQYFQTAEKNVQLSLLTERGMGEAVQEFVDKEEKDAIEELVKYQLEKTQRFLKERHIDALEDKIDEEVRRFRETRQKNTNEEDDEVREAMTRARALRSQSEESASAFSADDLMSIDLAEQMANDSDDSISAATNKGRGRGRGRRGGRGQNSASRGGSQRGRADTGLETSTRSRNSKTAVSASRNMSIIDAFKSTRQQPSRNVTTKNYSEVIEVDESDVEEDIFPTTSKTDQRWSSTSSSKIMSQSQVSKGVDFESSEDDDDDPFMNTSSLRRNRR
purified recombinant MRN complex (Mre11:Rad50:NBS1), sequence (Q92878 whole entry, chain 2 of 2, the tested form may be a part): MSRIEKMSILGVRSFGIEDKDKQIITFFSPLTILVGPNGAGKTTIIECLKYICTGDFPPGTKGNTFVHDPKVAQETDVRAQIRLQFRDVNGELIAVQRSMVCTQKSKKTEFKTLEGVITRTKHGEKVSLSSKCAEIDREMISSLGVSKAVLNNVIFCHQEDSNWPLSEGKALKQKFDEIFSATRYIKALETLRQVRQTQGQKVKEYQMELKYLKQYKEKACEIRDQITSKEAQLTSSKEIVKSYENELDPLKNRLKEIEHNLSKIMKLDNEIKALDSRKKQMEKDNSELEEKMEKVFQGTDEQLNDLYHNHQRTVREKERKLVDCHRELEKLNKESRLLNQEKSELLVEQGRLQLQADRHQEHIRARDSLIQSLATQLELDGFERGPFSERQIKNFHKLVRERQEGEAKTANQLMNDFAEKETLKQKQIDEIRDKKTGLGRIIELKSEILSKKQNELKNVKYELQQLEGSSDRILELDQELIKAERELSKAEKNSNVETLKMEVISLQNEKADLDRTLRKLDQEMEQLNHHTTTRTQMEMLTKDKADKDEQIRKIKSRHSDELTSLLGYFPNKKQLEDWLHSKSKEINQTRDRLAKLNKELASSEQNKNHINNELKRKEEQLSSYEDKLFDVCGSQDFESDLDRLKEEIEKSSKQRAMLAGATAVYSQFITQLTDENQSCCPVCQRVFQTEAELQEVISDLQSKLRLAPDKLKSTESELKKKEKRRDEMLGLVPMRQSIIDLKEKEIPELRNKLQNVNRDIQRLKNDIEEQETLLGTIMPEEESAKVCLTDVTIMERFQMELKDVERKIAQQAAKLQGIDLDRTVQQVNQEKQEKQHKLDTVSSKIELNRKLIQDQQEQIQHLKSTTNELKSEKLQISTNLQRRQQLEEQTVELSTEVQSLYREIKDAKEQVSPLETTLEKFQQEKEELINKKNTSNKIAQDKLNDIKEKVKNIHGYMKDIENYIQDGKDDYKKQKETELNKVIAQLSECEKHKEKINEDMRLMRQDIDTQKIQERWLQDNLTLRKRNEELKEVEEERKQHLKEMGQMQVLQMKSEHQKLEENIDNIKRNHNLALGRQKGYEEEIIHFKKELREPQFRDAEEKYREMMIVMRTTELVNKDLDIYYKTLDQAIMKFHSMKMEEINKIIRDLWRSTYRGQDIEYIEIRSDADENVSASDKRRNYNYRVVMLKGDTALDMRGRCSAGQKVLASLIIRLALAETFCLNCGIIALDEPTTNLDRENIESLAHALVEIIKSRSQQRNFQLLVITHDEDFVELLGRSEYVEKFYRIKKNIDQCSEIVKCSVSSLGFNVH

B1: hSSB1, full-length recombinant, His-tagged (natural protein)
chain: MTTETFVKDIKPGLKNLNLIFIVLETGRVTKTKDGHEVRTCKVADKTGSINISVWDDVGNLIQPGDIIRLTKGYASVFKGCLTLYTGRGGDLQKIGEFCMVYSEVPNFSEPNPEYSTQQAPNKAVQNDSNPSASQPTTGPSAASPASENQNGNGLSAPPGPGGGPHPPHTPSHPPSTRITRSQPNHTPAGPPGPSSNPVSNGKETRRSSKR
binds: [1] | [2] | [3] | [4]
